From US20060040325A1 come the findings set out here.

pKd: −log10 of the molar value.

The target of assay [1] is FcγRIIIA (soluble receptor used as analyte in the BIAcore runs) (human) (UniProt P08637). The assay can be described thus: SPR (BIAcore 3000), IgG amine-coupled to CM5, soluble FcγRIIIA injected; steady-state isotherm; Run 2. On the technique in general: SPR reads the build-up and loss of mass on a sensor chip optically.
Assay [2] shares this target. The assay can be described thus: SPR (BIAcore 3000), IgG amine-coupled to CM5, soluble FcγRIIIA injected; Scatchard plot of Req; Run 1.
The target is the same in assay [3]. The experiment in a line: SPR (BIAcore 3000), IgG amine-coupled to CM5, soluble FcγRIIIA injected; steady-state isotherm; Run 1.
Assay [4] deals with FcγRIIB-streptavidin fusion protein (tetramer) (human; Streptomyces avidinii) (UniProt P31994). The assay can be described thus: ELISA: antibody at varied concentration captured on protein A/G, FcγRIIB-streptavidin, biotin-HRP, OD at 450 nm. On the technique in general: An ELISA detects its analyte on a solid surface through an enzyme-linked reagent.
FcγRIIB-streptavidin fusion protein (tetramer) (human; Streptomyces avidinii), sequence (P31994 43-217 limits assumed): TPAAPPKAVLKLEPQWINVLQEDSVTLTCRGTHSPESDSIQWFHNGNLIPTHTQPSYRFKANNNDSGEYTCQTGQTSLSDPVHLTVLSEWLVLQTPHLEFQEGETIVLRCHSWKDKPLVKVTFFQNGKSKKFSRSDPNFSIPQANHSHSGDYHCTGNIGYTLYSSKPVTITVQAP
The target of assay [5] is FcγRIIIA (soluble receptor used as analyte in the BIAcore runs) (human) (UniProt P08637). The assay can be described thus: SPR (BIAcore 3000), IgG amine-coupled to CM5, soluble FcγRIIIA injected; Scatchard plot of Req; Run 2.

FcγRIIIA (soluble receptor used as analyte in the BIAcore runs) (human), sequence (P08637 17-208): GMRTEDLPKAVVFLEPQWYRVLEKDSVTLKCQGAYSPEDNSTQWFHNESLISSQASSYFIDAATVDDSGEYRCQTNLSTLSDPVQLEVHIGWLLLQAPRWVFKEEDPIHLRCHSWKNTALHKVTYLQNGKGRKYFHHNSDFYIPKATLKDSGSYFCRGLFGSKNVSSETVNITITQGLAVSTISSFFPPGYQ

In turn, “Vitaxin®-3M (Vitaxin® Fc variant S239D/A330L/I332E, IgG1) (antibody)” showed a negative-log Kd (pKd) in assay [1] of 6.94.

Consider “Vitaxin®-1M (Vitaxin® Fc variant I332E, IgG1) (antibody)”, for which the pKd in assay [2] is 6.34; in assay [3], 6.34; in assay [5], 5.91; in assay [1], 5.89. The EC50 (read off the curve) in assay [4] amounted to 0.3 µg/mL.

As for “Vitaxin® (wild type, full length IgG1) (antibody)”, the pKd in assay [2] is 5.49; in assay [3], 5.46; in assay [5], 5.12; in assay [1], 5.05. In addition, the EC50 (read off the curve) in assay [4] worked out at 0.3 µg/mL.

What is called pKd is −log10 of the Kd, conventionally taken in molar units. Read a high pKd as a small Kd. The term EC50 (read off the curve) denotes the concentration at which the effect is half-maximal. Lower therefore signals an effect from little substance.
